Reference: PMC5800842

What was measured:
[1] = molecular target: ZNRF3/RNF43
[2] = molecular target: LGR4 (human (endogenous in HAP1)) (UniProt Q9BXB1)

EC50 of potentiation of WNT reporter fluorescence in WT HAP1-7TGP cells with 1.43% WNT3A CM, fold over wild-type RSPO3 [1] [fold] | EC50 of potentiation of WNT reporter fluorescence in WT HAP1-7TGP cells with 1.43% WNT3A CM, fold over wild-type RSPO3 [2] [fold] | efficacy (maximum WNT reporter activity) in WT HAP1-7TGP cells with 1.43% WNT3A CM, reduction against wild-type RSPO3 [2] [% reduction] | Binder
21 |  |  | HA-RSPO3 R67A/Q72A-Tev-Fc-Avi-1D4 (Fc fusion) QNASRGRRQRRMHPNVSQGCQGGCATCSDYNGCLSCKPRLFFALEAIGMKAIGVCLSSCPSGYYGTRYPDINKCTKCKADCDTCFNKNFCTKCKSGFYLHLGKCLDNCPEGLEANNHTMECVSIVHCEVSEWNPWSPCTKKGKTCGFKRGTETRVREIIQHPSAKGNLCPPTNETRKCTVQRKKCQKGERGKKGRERKRKKPNKGESKEAIPDSKSLESSKEIPEQRENKQQQKKRKVQDKQKSVSVSTVH
 | 2.9 | 48 | HA-RSPO3 F106E/F110E-Tev-Fc-Avi-1D4 (Fc fusion) QNASRGRRQRRMHPNVSQGCQGGCATCSDYNGCLSCKPRLFFALERIGMKQIGVCLSSCPSGYYGTRYPDINKCTKCKADCDTCENKNECTKCKSGFYLHLGKCLDNCPEGLEANNHTMECVSIVHCEVSEWNPWSPCTKKGKTCGFKRGTETRVREIIQHPSAKGNLCPPTNETRKCTVQRKKCQKGERGKKGRERKRKKPNKGESKEAIPDSKSLESSKEIPEQRENKQQQKKRKVQDKQKSVSVSTVH
